Columns and labels:
[1] = molecular target: Unmodified nucleosome core particle (X. laevis histone octamer on 147 bp Widom-601 DNA) (X. laevis); experiment: native gel or EMSA; increasing amounts of Orc1 or Sir3 proteins with 50 or 25 nM nucleosomes; 10 mM Tris pH 7.5, 50 mM NaCl, 2.5% glycerol, 1 mM DTT; room temperature, 30 min; native PAGE 6% (Sir3) or 8% (Orc1), 0.2X TBE; decrease of free nucleosome; apparent KD from a Hill fit
[2] = molecular target: H4K16ac nucleosome (X. laevis | not stated); experiment: as above

Wild-type Orc1 (1–214) BAH domain, sequence (P54784 1-214): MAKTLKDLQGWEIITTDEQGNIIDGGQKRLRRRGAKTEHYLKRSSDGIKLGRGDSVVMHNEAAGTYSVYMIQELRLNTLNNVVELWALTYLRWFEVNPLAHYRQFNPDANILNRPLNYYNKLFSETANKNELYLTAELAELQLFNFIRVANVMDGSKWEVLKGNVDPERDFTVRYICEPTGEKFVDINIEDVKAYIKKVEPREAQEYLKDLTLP

Wild-type Orc1 (1–214) BAH domain (from UniProt P54784 1-214) (domain or fragment)
Kd [1]: 1300 nM
Kd [2]: 1500 nM

Reference: PMC6602975
